In the RNAGym collection of RNA variant scans (doi:10.7554/elife.80360) one finds self-cleavage data, which are given here for 167 variants.

B1: Hairpin Ribozyme (parent)
chain: GUCCUCUUUCACGUGCGCGUGAAAGAGAGAAGUGAACCAGAGAAACACACGUUGUGGUAUAUUACCUGGUA

In this data set the parent is B1. Briefly: self-cleavage, relative activity (ratio to wild type); higher = more cleavage; co-transcriptional.
On to G40A U60A, for which the self-cleavage came out at 0.271. C3A A64U: the self-cleavage was 0.249. Consider C37A G51C, for which the self-cleavage worked out at 0.239. Next, G1U G15U: 0.102; U20G C50U: 0.42. For the variant U2C A26C, the self-cleavage amounted to 0.0664. In the case of G15U G21C, the self-cleavage came to 0.829. With C3G G19U, the self-cleavage worked out at 0.26. Consider G1U A30G, for which the self-cleavage is 0.105.

For G1U C16G, the self-cleavage is 0.127. Take U14A G17C: the self-cleavage amounted to 0.472. Next, G17C C50G: 0.132. On to C6U U58A, for which the self-cleavage worked out at 0.66. Turning to A43C G69A, the self-cleavage came to 0.105. Take G21C G27A: the self-cleavage was found to be 0.186. For the variant C37A A41G, the self-cleavage was 0.339.

Regarding C3G G42A, the self-cleavage was 0.0837. With U52A G54C, the self-cleavage is 0.47. As for C66U G69C, the self-cleavage stood at 0.198. As for A11C U14G, the self-cleavage was found to be 0.661. On to C18A G42A, for which the self-cleavage turned out to be 0.203. With G54C U62C, the self-cleavage was found to be 0.108.

As for C18U A64U, the self-cleavage came out at 0.109. Consider G27A U67G, for which the self-cleavage worked out at 0.175. For A45C G54A, the self-cleavage is 0.132. In the case of A49U U60A, the self-cleavage was 0.281.

In the case of G17A U53C, the self-cleavage is 1.01. Regarding G51A G69C, the self-cleavage amounted to 0.467. On to G19C A23C, for which the self-cleavage is 0.696. As to G25A G56U, the self-cleavage is 0.117.

Consider C4U C46U, for which the self-cleavage amounted to 0.152. As for U5G A59G, the self-cleavage was determined as 0.0492. With U14C C16G, the self-cleavage amounted to 0.821. As for U2G U60C, the self-cleavage stood at 0.373.

For U7C G69C, the self-cleavage is 0.17.

G27C G29A: the self-cleavage was 0.138.

Regarding A39C G56C, the self-cleavage came out at 0.144. As to A26G A44C, the self-cleavage amounted to 0.0629.

In the case of C3U A64G, the self-cleavage was 0.212. The result for G42C G51C reads 0.227; that for A39U G69U, 0.151; that for A28U A45U, 0.224.

In the case of A11C A59G, the self-cleavage came to 0.161. Turning to A39C C66U, the self-cleavage came to 0.306. Next, U53G A59G: 0.114. For U53G A59C, the self-cleavage turned out to be 0.166. U5C A41C: the self-cleavage is 0.734. Consider G15U U60A, for which the self-cleavage is 0.932.

In the case of G42U U62A, the self-cleavage was 0.2. In the case of U20G C65G, the self-cleavage was 0.177. For the variant U70C A71U, the self-cleavage turned out to be 1.64. For the variant U70C A71C, the self-cleavage amounted to 1.79.

C10U A23C: the self-cleavage came to 0.637. With A28C U60C, the self-cleavage was found to be 0.558.

Regarding G21U G40A, the self-cleavage came to 0.309. Regarding G32U A49C, the self-cleavage was determined as 0.0697. The result for A23G G68A reads 0.311; that for A26U C48A, 0.153. In the case of C3U U62G, the self-cleavage is 0.259. Turning to G54C A71G, the self-cleavage came out at 0.438.

Consider C37G U63C, for which the self-cleavage turned out to be 0.154. Regarding G57A U60C, the self-cleavage worked out at 0.205. The result for G19U A59G reads 0.204.

Consider G1A U7G, for which the self-cleavage worked out at 0.148. As for G34A G68C, the self-cleavage is 0.283. For the variant U2C A45C, the self-cleavage worked out at 0.0982.

For the variant C10A G42C, the self-cleavage was 0.235. As to A23U U53A, the self-cleavage worked out at 0.969. For the variant C46A C65G, the self-cleavage was found to be 0.146.

In the case of U9A A41C, the self-cleavage came to 0.783.

As for C4A U5C, the self-cleavage was 0.23.

As for U7C U52G, the self-cleavage was 0.653. Next, U7C A28C: 0.367; U53C U62G: 0.122. Next, C4G A41U: 0.558; U58C U70A: 0.897. Next, A28U U58C: 0.58. Regarding A41U U55C, the self-cleavage was 0.762. Turning to G40U C65U, the self-cleavage was 0.177. The result for G1C A36U reads 0.338; that for A43U, 0.151.

Turning to C18U A36G, the self-cleavage was 1.15.

Turning to G21C C37G, the self-cleavage was determined as 0.425. Take U55A A61G: the self-cleavage was 0.156.

For the variant A43G C48A, the self-cleavage is 0.174. Regarding C46G U60C, the self-cleavage stood at 0.0722. With A23U A61C, the self-cleavage came out at 0.126.

Turning to U7G A24U, the self-cleavage was found to be 0.685.

Regarding G21U U62G, the self-cleavage stood at 0.156. Regarding A47U A59C, the self-cleavage is 0.164. As for A64C C65A, the self-cleavage turned out to be 0.186. G17A G51A: the self-cleavage was 1.06. Consider U9G G68A, for which the self-cleavage amounted to 0.247.

For A45U, the self-cleavage was determined as 0.14. For G13U A31U, the self-cleavage turned out to be 0.109. For the variant C4G G51A, the self-cleavage turned out to be 0.245. Turning to C16G U55G, the self-cleavage was 0.247. On to A22C C46U, for which the self-cleavage is 0.141.

On to C46A G68C, for which the self-cleavage turned out to be 0.277. As for C3U U8C, the self-cleavage turned out to be 0.253.

With G21U A49C, the self-cleavage came out at 0.219. With C3G U60C, the self-cleavage was found to be 0.314.

In the case of C38G G54C, the self-cleavage amounted to 0.12. Regarding A39U U60A, the self-cleavage came out at 0.345. As for A24C A45C, the self-cleavage worked out at 0.235. Next, C6U G25C: 0.773.

C46U A49C: the self-cleavage amounted to 0.201. The result for A49G U53C reads 0.363; that for C6A C16U, 0.659; that for C16A U53A, 0.936. With G1U U14G, the self-cleavage stood at 0.184. C12U U33G: the self-cleavage worked out at 0.207. For the variant C16A U60C, the self-cleavage turned out to be 0.836. The result for C16U U63G reads 0.195.

As for G27C G68A, the self-cleavage stood at 0.105. On to U5A G54C, for which the self-cleavage was 0.124. G29A G42C: the self-cleavage turned out to be 0.0675.

For the variant A24U G29U, the self-cleavage came to 0.0631. Consider C3A U14A, for which the self-cleavage worked out at 0.525. For the variant A23G G69C, the self-cleavage was found to be 0.303.

In the case of C50G U62G, the self-cleavage turned out to be 0.151.

As to A36U A45C, the self-cleavage was 0.224. On to A23G U62C, for which the self-cleavage stood at 0.43. As for C3A U55C, the self-cleavage worked out at 0.261. As to C18G G69A, the self-cleavage worked out at 0.378. With G69A U70C, the self-cleavage was determined as 0.387. Regarding C12G U14C, the self-cleavage stood at 0.61. With C4A C50A, the self-cleavage was determined as 0.178. On to G32C U52C, for which the self-cleavage was determined as 0.131.

Consider G27C U55G, for which the self-cleavage turned out to be 0.113. On to G13A C16A, for which the self-cleavage was found to be 0.82. On to U14G A35G, for which the self-cleavage came out at 0.715. Consider A45G G57C, for which the self-cleavage was found to be 0.0828.

For the variant A49C G57A, the self-cleavage came to 0.193. On to A35U U60C, for which the self-cleavage stood at 0.559.

U9C U52C: the self-cleavage is 0.6. With G17A A39G, the self-cleavage was 0.319. The result for A31G G56A reads 0.0841; that for G29A C48U, 0.0646. G19U G29U: the self-cleavage is 0.14. In the case of C12G G40U, the self-cleavage turned out to be 0.113.

Take C12G A31U: the self-cleavage amounted to 0.152. With C38G A49C, the self-cleavage amounted to 0.106. U33C G57C: the self-cleavage stood at 0.0819. The result for C12G A71G reads 0.803. For the variant U33A C37U, the self-cleavage was found to be 0.109.

As to U52G U53G, the self-cleavage was 1.39. With C16U G21U, the self-cleavage was found to be 0.991. As to A61G U62C, the self-cleavage turned out to be 0.0932.

Regarding C4A U8G, the self-cleavage was 0.0842. Turning to C6G G56U, the self-cleavage is 0.141. In the case of A31U G32A, the self-cleavage was found to be 0.102. The result for G27C U53C reads 0.318. Regarding G17U A43G, the self-cleavage came out at 0.0761. With A64C G68U, the self-cleavage is 0.26. Turning to A26U U52A, the self-cleavage stood at 0.788. As for A26U A31U, the self-cleavage came out at 0.0397. Take A30G C48A: the self-cleavage amounted to 0.0555. On to U8C C12G, for which the self-cleavage was 0.229.

Consider G13A A28C, for which the self-cleavage was 0.258.

For the variant C18A C65U, the self-cleavage stood at 0.254. The result for G54U U55C reads 0.18. As for G15C U58C, the self-cleavage came out at 0.974. On to U52C A64G, for which the self-cleavage stood at 0.546. In the case of C3U G56A, the self-cleavage turned out to be 0.16.

With C4U C48G, the self-cleavage stood at 0.123. Regarding G1A G21U, the self-cleavage was determined as 0.127.
